For 1 substance, CDC of Daudi cells with baby rabbit serum (CCK8) (% of cells dead) results are on record in patent US20230181701A1.

This assay concerns the target CD20 on Daudi cells (UniProt P11836). Nature of the assay: cell-based or functional assay.
Sequence of UniProt P11836 (P11836 whole entry): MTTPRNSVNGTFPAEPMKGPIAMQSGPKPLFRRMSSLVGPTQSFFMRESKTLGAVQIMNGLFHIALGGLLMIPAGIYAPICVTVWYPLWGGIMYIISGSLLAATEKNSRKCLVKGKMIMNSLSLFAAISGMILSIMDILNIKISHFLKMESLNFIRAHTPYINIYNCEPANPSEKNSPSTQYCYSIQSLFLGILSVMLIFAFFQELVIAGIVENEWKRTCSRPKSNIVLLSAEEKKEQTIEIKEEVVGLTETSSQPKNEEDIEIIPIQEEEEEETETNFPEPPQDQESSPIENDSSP

Turning to “Anti-CD20 IgG (Rituximab, N7022, 10 mg/mL, Mabthera) (antibody)”, the CDC of Daudi cells with baby rabbit serum (CCK8) (% of cells dead) stood at 70.
